Where only a bound is given, the exact number is not on record here.

Test [1] deals with T1, MASP-3 (human, UniProt P48740-2 20-728, limits assumed).
T1 construct: Species read from 'Recombinant human MASP-2 or C1r, C1s, CFD, MASP-1 and MASP-3'
T1 sequence (looked up): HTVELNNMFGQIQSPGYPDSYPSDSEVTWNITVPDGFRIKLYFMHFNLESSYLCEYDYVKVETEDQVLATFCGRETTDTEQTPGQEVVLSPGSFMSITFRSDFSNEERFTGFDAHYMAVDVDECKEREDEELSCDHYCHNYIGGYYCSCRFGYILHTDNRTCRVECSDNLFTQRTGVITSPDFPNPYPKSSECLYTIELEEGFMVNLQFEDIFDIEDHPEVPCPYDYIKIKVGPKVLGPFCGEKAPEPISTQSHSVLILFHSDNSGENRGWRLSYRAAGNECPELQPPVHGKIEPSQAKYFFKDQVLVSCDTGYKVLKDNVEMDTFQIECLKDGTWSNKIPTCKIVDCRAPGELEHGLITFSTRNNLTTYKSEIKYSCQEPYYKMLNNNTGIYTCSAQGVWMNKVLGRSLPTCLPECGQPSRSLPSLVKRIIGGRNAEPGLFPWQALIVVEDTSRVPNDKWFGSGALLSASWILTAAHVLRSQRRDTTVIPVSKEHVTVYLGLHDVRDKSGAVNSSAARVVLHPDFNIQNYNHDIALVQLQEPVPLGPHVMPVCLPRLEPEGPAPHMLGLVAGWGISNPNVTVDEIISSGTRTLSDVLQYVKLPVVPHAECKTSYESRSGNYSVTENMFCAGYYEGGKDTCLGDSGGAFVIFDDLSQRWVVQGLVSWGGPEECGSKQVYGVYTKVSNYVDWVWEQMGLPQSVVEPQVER
Nature of the test: solid phase ELISA, against human MASP-2 as reference. An excerpt: (§1) The apparent dissociation constant (KD) was estimated by nonlinear regression using a 4-parameter logistic model.
(§2) Fold selectivity calculated as KD(related serine protease)/mean KD(MASP-2).

Test [2] concerns the target Recombinant human MASP-2 (specificity ELISA, Example 14) (human, UniProt O00187 16-686, limits assumed). The experiment in a line: solid phase ELISA, immobilized protease, mean apparent KD of two lots.
Excerpt: as §1, §2

In a further test the target is T2, MASP-1 (human, UniProt P48740 20-699, limits assumed).
T2 construct: Species read from 'Recombinant human MASP-2 or C1r, C1s, CFD, MASP-1 and MASP-3'
T2 sequence (looked up): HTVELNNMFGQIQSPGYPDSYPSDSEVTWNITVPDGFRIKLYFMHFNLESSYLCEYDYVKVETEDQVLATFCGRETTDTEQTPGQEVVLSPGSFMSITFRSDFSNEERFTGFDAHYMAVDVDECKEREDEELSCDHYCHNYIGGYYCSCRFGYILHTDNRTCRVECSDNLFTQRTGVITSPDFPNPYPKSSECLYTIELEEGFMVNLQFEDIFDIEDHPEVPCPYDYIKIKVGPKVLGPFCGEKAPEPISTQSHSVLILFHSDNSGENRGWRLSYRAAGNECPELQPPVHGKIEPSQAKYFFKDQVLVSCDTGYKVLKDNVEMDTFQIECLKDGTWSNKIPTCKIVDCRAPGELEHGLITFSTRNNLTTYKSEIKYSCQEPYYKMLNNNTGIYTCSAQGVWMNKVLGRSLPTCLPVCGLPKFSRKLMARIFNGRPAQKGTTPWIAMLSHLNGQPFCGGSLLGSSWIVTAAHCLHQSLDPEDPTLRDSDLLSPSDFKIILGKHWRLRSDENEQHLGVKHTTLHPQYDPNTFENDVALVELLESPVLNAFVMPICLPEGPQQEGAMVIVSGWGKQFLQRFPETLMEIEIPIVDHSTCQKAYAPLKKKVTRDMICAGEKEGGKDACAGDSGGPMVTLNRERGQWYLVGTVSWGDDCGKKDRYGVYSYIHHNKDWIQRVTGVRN
The description is as above.
Excerpt: as §1, §2

Test [3] has as its target T1, MASP-3. The test is described as above.
Excerpt: as §1, §2

A further test has as its target T3, C1r (human, UniProt P00736 18-705, limits assumed).
T3 construct: Species read from 'Recombinant human MASP-2 or C1r, C1s, CFD, MASP-1 and MASP-3'
T3 sequence (looked up): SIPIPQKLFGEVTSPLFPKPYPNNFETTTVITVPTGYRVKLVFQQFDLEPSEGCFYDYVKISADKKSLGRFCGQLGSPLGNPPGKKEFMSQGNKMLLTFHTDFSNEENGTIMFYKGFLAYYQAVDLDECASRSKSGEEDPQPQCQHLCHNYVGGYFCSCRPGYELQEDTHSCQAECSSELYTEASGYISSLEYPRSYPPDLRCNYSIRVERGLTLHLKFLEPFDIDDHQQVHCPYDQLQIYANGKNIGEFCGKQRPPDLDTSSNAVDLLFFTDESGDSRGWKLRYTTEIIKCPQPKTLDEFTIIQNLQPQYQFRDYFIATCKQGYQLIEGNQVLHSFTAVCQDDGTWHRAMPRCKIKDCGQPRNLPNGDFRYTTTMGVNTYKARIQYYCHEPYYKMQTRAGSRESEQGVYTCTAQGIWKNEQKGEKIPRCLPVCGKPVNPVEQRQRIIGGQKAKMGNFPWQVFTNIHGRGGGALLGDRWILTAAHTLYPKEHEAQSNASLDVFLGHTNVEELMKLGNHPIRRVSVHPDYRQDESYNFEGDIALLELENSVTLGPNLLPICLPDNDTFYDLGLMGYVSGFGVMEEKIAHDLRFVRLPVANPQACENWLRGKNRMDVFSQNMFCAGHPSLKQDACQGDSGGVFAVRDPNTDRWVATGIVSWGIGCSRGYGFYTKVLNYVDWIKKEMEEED
The test is described as above.
Excerpt: as §1, §2

The target of another test is T4, CFD (human, UniProt P00746 26-253, limits assumed).
T4 construct: Species read from 'Recombinant human MASP-2 or C1r, C1s, CFD, MASP-1 and MASP-3'; also called factor D; complement factor D
T4 sequence (P00746 26-253 limits assumed): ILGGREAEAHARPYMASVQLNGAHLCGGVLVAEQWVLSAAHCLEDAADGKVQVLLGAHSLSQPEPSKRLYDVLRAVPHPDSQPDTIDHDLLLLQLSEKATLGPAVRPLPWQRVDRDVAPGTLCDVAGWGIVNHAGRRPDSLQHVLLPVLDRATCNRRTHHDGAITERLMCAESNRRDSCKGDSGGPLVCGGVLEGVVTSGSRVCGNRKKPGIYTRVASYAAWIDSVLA
Described as above.
Excerpt: as §1, §2

Recombinant human MASP-2 (specificity ELISA, Example 14), sequence (O00187 16-686 limits assumed): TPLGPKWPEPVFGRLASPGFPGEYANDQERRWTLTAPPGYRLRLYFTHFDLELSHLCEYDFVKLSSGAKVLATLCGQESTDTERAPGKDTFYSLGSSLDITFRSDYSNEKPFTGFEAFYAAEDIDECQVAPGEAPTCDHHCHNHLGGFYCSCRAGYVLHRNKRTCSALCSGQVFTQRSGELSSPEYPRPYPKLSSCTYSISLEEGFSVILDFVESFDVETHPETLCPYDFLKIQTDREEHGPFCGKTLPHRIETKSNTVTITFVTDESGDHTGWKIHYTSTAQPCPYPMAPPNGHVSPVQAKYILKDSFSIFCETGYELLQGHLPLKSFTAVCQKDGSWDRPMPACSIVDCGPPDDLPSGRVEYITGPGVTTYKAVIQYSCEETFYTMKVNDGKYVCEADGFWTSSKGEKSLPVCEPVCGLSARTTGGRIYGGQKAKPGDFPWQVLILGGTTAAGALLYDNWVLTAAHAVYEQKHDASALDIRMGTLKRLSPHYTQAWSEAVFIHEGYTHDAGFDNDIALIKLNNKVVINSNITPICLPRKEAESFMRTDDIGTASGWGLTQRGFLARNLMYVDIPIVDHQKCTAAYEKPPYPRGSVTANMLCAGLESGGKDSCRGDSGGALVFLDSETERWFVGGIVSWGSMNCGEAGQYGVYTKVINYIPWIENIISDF

B1: mAb OMS858 (humanized anti-MASP-2 antibody) (antibody, V domains shown)
VH: QVQLVQSGAEVKKPGASVKVSCKASGYTFTNHHMHWLRQAPGQGLEWIGDIDASDSETHYIEKFKDRATLTIDKSSSTAYMELSSLRSEDTAVYYCARGDITTTLRYFDVWGQGTLVTVSS
VL: DIQLTQSPSSLSASVGDRVTITCSASSSVRYMYWYQQKPGKAPKLLIYDTSNLASGVPSRFSGSGSGTDNTLTISSLQPEDFATYYCQQWSSYPLTFGQGTKVEIKR
notes: also called antibody OMS858; biotinylated OMS858
Turning to B1, the “Fold selectivity (KD related serine protease / mean KD MASP-2)” value in the test with MASP-3 [1] is greater than 2000 fold. Also, the Kd in test [2] is 0.047 µg/mL; in the test with MASP-1, greater than 100 µg/mL; with MASP-3 [3], greater than 100 µg/mL; with C1r it was greater than 100 µg/mL; in the test with CFD, greater than 100 µg/mL.

Source of the values: patent publication US20230265215A1 (OMEROS, published 2023).
